Source: article doi:10.1101/2020.12.10.419556

Tests used:
Assay in all cases: loss of red fluorescence after photoconversion
[1] = target: PhoCl1 empty barrel fragment (residues 1-231), from pBAD/HisB constructs
[2] = target: PhoCl2f empty barrel fragment (residues 1-231)
[3] = target: PhoCl1.5f-MVL empty barrel fragment (residues 1-231)

dissociation t1/2 [1]: 9.5 min
dissociation t1/2 [2]: 1.27 min
red fluorescence remaining after dissociation [3]: 60%
Substance: PhoCl C-terminal peptide fragment (residues 232-242), from pBAD/HisB PhoCl variants
